± gives the standard error. For some assays here: This sample holds only a part of the variants without activity.
B1: glmS ribozyme (parent)
chain: AUAAAAGCGCCAGAACUACAGAAAUGUAGUUGACGAGGAGGAGGUUUAUCGAAUUUUCGGCGGAUGCCUCCAAA

Tests used:
Conditions in all cases: with glucosamine-6-phosphate
glucosamine-6-phosphate [1] = variants of: B1; assay: kcat; higher = faster cleavage; RNA array
In short: (§1)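 Barcoded ribozyme variants were transcribed in situ on sequenced MiSeq chips by E. coli RNA polymerase. At 37 °C, a hybridised Cy3 probe tracked them while glucosamine-6-phosphate (40 μM to 10 mM) in HEPES/KCl/Mg(OAc)2 buffer flowed in and tiles were imaged over ~14 h. Per-tile medians of signals normalised to baseline and to non-cleaving reference variants were fit to one- or two-exponential decays, giving kobs. kcat and KM came from weighted Michaelis–Menten fits across concentrations.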

glucosamine-6-phosphate [2] = variants of: B1; assay: KM; higher = weaker cofactor use; RNA array
In short: as §1

glucosamine-6-phosphate [3] = variants of: B1; assay: self-cleavage kobs at 640 uM GlcN6P; higher = faster cleavage; RNA array
In short: as §1

glucosamine-6-phosphate [4] = variants of: B1; assay: self-cleavage kobs at 2500 uM GlcN6P; higher = faster cleavage; RNA array
In short: as §1

glucosamine-6-phosphate [5] = variants of: B1; assay: self-cleavage kobs at 10000 uM GlcN6P; higher = faster cleavage; RNA array
In short: as §1

glucosamine-6-phosphate [6] = variants of: B1; assay: self-cleavage kobs at 40 uM GlcN6P; higher = faster cleavage; RNA array
In short: as §1

glucosamine-6-phosphate [7] = variants of: B1; assay: self-cleavage kobs at 160 uM GlcN6P; higher = faster cleavage; RNA array
In short: as §1

Variant | kcat (glucosamine-6-phosphate [1]) [s⁻¹] | KM (glucosamine-6-phosphate [2]) [µM] | self-cleavage kobs at 640 uM GlcN6P (glucosamine-6-phosphate [3]) [s⁻¹] | self-cleavage kobs at 2500 uM GlcN6P (glucosamine-6-phosphate [4]) [s⁻¹] | self-cleavage kobs at 10000 uM GlcN6P (glucosamine-6-phosphate [5]) [s⁻¹] | self-cleavage kobs at 40 uM GlcN6P (glucosamine-6-phosphate [6]) [s⁻¹] | self-cleavage kobs at 160 uM GlcN6P (glucosamine-6-phosphate [7]) [s⁻¹]
U30G C67A C70U | 0.000403 ± 2.7e-05 | 353 ± 78 | 0.00027 ± 6.3e-05 | 0.000399 ± 0.00014 | 0.000369 ± 8.4e-05 | – | –
U31A A53C | 0.00557 ± 0.0019 | 5300 ± 2300 | 0.000507 ± 6.9e-05 | 0.00162 ± 0.00025 | 0.00393 ± 0.00053 | 4.92e-05 ± 9.4e-06 | 0.000229 ± 3.4e-05
G32A U49A | < 1e-05 | – | – | – | – | – | –
U31C U54A | 0.00685 ± 0.0022 | 2980 ± 1300 | 0.00122 ± 0.00019 | 0.00228 ± 0.00051 | 0.006 ± 0.00078 | 0.000119 ± 1.5e-05 | 0.000268 ± 5.9e-05
G32U A52G | 8.92e-05 ± 4.7e-06 | 3490 ± 570 | – | 3.86e-05 ± 7.8e-06 | 6.6e-05 ± 5.2e-06 | – | –
U30G G32C | 0.000158 ± 2.5e-05 | – | – | 0.000149 ± 3e-05 | 0.000134 ± 1.6e-05 | – | –
U31A U56C | 0.00331 ± 0.0008 | 2630 ± 990 | 0.00066 ± 0.00012 | 0.00115 ± 0.00025 | 0.00299 ± 0.00037 | 6.48e-05 ± 1.3e-05 | 0.000186 ± 4.2e-05
G32C U56G | 5.69e-05 ± 1.6e-06 | 663 ± 110 | 2.63e-05 ± 1.3e-05 | 4.76e-05 ± 1.1e-05 | 5.27e-05 ± 7.2e-06 | < 1e-05 | –
G32U A33U | < 1e-05 | – | – | < 1e-05 | – | < 1e-05 | < 1e-05
G32A C70A | 7.22e-05 ± 1.4e-05 | – | 8.06e-05 ± 1.2e-05 | 8.73e-05 ± 8.9e-06 | 5.13e-05 ± 8.6e-06 | – | –
U31C U47C | 0.000503 ± 6.2e-05 | 2160 ± 430 | 0.000111 ± 2e-05 | 0.000269 ± 5.7e-05 | 0.00042 ± 0.00011 | – | –
U30G G37C | 1.26e-05 ± 3.7e-06 | – | – | – | – | < 1e-05 | –
U31A G59U | 3.57e-05 ± 2.2e-06 | 2240 ± 490 | – | – | – | – | –
G32U C68U | 0.000114 ± 5.5e-06 | 1540 ± 250 | 2.88e-05 ± 8.9e-06 | 7.28e-05 ± 6.1e-06 | 9.76e-05 ± 6.8e-06 | < 1e-05 | –
U31A U47G | 0.00294 ± 0.0012 | – | 0.00063 ± 0.00014 | 0.00264 ± 0.00082 | 0.00266 ± 0.00079 | 7.57e-05 ± 1.9e-05 | 0.000353 ± 7.9e-05
U30G C58U | 5.55e-05 ± 8.1e-06 | – | – | – | 4.54e-05 ± 1.6e-05 | – | –
U30G C58A | 0.000335 ± 5.6e-05 | 2550 ± 710 | 7.21e-05 ± 8.3e-06 | 0.000154 ± 1.8e-05 | 0.000293 ± 5e-05 | – | –
U30C U54C | 0.000253 ± 0.00011 | – | 7.76e-05 ± 1.2e-05 | 9.4e-05 ± 2.7e-05 | 0.000271 ± 4.1e-05 | – | 4.17e-05 ± 1.8e-05

Variant | kcat (glucosamine-6-phosphate [1]) [s⁻¹] | KM (glucosamine-6-phosphate [2]) [µM] | self-cleavage kobs at 640 uM GlcN6P (glucosamine-6-phosphate [3]) [s⁻¹] | self-cleavage kobs at 2500 uM GlcN6P (glucosamine-6-phosphate [4]) [s⁻¹] | self-cleavage kobs at 10000 uM GlcN6P (glucosamine-6-phosphate [5]) [s⁻¹] | self-cleavage kobs at 40 uM GlcN6P (glucosamine-6-phosphate [6]) [s⁻¹] | self-cleavage kobs at 160 uM GlcN6P (glucosamine-6-phosphate [7]) [s⁻¹]
U31G U56G C71A | 0.000443 ± 5.1e-05 | 3050 ± 740 | – | 0.000191 ± 4.5e-05 | 0.00035 ± 9e-05 | – | –
U31G G37C | 2.89e-05 ± 1.4e-06 | 1380 ± 340 | – | – | – | < 1e-05 | –
U31C C58G | 7.48e-05 ± 2.5e-05 | – | 2.98e-05 ± 1.3e-05 | 2.91e-05 ± 1.1e-05 | 6.27e-05 ± 1.2e-05 | < 1e-05 | –
G32U G37A | 4.33e-05 ± 1.3e-05 | – | – | – | 3.21e-05 ± 6.6e-06 | – | –
G32A G37A | 0.00051 ± 0.00011 | – | – | 4.62e-05 ± 1e-05 | 0.000143 ± 1.8e-05 | – | –
U31A U69G | 5.26e-05 ± 7e-06 | – | 6.47e-05 ± 1.5e-05 | 5.62e-05 ± 1.2e-05 | 4.26e-05 ± 9.9e-06 | – | 4.7e-05 ± 1.3e-05
U31G A48C | 0.000112 ± 1.1e-05 | 2550 ± 670 | – | 5.79e-05 ± 1.5e-05 | 8.83e-05 ± 1.7e-05 | – | –
U31C U69G | 3.99e-05 ± 1.4e-05 | – | – | 5.64e-05 ± 1.6e-05 | – | – | –
U30G U56C | 0.00111 ± 0.00035 | – | 0.000359 ± 5.7e-05 | 0.000454 ± 8.9e-05 | 0.00109 ± 0.00017 | – | 7.46e-05 ± 1.8e-05
U31C U55A | 0.00809 ± 0.0017 | 3270 ± 1100 | 0.00126 ± 0.00017 | 0.00333 ± 0.00051 | 0.00623 ± 0.00059 | 0.000152 ± 2.3e-05 | 0.000289 ± 6.8e-05
U31G G44U | 0.000237 ± 6.3e-05 | 8740 ± 3600 | – | 4.98e-05 ± 1.3e-05 | 0.000129 ± 3e-05 | – | –
U31A A33U | 2.01e-05 ± 3.8e-06 | – | – | – | – | < 1e-05 | –
G32U G41A | 0.000221 ± 1.2e-05 | 4720 ± 590 | 2.98e-05 ± 1.1e-05 | 7.3e-05 ± 1.5e-05 | 0.00015 ± 1.4e-05 | – | –
U31G G41U | 0.000641 ± 0.00019 | – | 0.000154 ± 6.3e-05 | 0.000806 ± 0.00017 | 0.000505 ± 0.0001 | – | 6.71e-05 ± 1.8e-05
U31C C50A | < 1e-05 | – | – | – | – | < 1e-05 | –
U31C A52G | 0.000531 ± 5.8e-05 | 4640 ± 810 | 6.14e-05 ± 7.4e-06 | 0.000196 ± 2.2e-05 | 0.000358 ± 3.4e-05 | – | 2.13e-05 ± 8.7e-06
U31C G41A | 9.11e-05 ± 9.7e-06 | – | 6.76e-05 ± 1.5e-05 | 9.23e-05 ± 1.6e-05 | 8.13e-05 ± 1.2e-05 | – | –

Source: the supplement of paper PMC7125110
